Consider 1 substance from US20230039487A1.

One assay has as its target hBCMA-mFc (UniProt Q02223). Briefly: competition ELISA; isotype control; blocking of APRIL binding.
Another assay deals with hBCMA-His (human) (UniProt Q02223). Briefly: ELISA; isotype control. On the technique in general: ELISA stands for enzyme-linked immunosorbent assay.
Sequence of hBCMA-His (human) (Q02223 1-54): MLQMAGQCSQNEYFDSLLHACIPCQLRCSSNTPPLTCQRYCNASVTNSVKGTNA

Sequence of hBCMA-mFc (Q02223 1-54): as above

Substance h IgG1 ISO showed an IC50 with hBCMA-mFc of 202 nM. The substance also returned an EC50 in the assay with hBCMA-His (human) of 61.4 nM.

The IC50 is the midpoint of a concentration-inhibition curve. One may read the EC50 as the midpoint of the concentration-response curve. A higher EC50 goes with weaker potency.
